Positions count from the first letter of the chain named. Numbers in names are those of the source. Entries after “also recorded” stand apart in the source; their conditions may differ.
Assays:
[1] = Luminescence activities of MLuc and its variants; format: cell-based; details: for luminescence stability of MLuc variants: measured every 0.5 seconds
Experimental: These variants were individually introduced in equal amounts into living cells, and their relative luminescence spectra were measured. […] In order to examine the luminescence stability of the variants produced in the present invention, temporal changes in the luminescence intensity after the introduction of the substrate were measured every 0.5 seconds (FIG. 15B). […] Further, in order to examine the long-wavelength luminescence intensities of the variants, the luminescence intensities of the variants were measured using a 610 nm long-pass filter. […] Results similar to the above tendency were obtained from the measurement of the luminescence intensities before and after the introduction of the substrate (FIG. 15D).

[2] = tested on: stress hormone receptor (glucocorticoid receptor); experiment: Single-molecule-format bioluminescent probe response to stress hormone; format: cell-based; details: with/without stress hormone
Experimental: In order to further examine the advantages of the highly-luminescent variants of the present invention, a single-molecule-format bioluminescent probe was synthesized based on this variant (FIG. 13). […] These probes were inserted into living cells, and the difference in the luminescence intensity was measured under conditions of presence and absence of […].
First, a stress hormone receptor recognizes the stress hormone, and causes an alteration in the structure. As a result, the receptor binds to the adjacent LXXLL motif, which thereby causes recombination of the fragments of the dissected luciferase. At this time, the activity of the stress hormone can be measured using the reversed enzyme activity as the index.
The sensitivity of SimGR3, 8990N, and Mon3N prepared for this experiment to the stress hormone was measured (FIG. 13B).

[3] = Luminescence activities of MpLuc1 and its variants; format: cell-based; details: for luminescence stability compared with MpLuc1: microplate reader
Experimental: These variants were individually introduced in equal amounts into living cells, and their relative luminescence intensities were measured.

BALE/c nude mice = experiment: In vivo imaging of transplanted COS-7 cells expressing GLuc or 8990; details: subcutaneous COS-7 cells, coelenterazine injected; listed as 8990
Experimental: Subsequently, both of these transformed cells were transplanted into subcutaneous tissues of the back on the left and right sides of BALE/c nude mice (5-week-old female). After waiting 12 hours to allow stabilization of the transplanted cells, an equal amount of substrate (coelenterazine) was injected. Subsequently, the developed bioluminescence intensities were compared (FIG. 16A).

[4] = Temporal changes in bioluminescence intensity after substrate introduction (stability); details: for bioluminescence stability and strength: substrate in modified Matthew's buffer; for bioluminescence stability, short time: 5 seconds; for bioluminescence stability, short time / bioluminescence stability, long time: substrate in PBS buffer; for bioluminescence stability, long time: 10 minutes
Experimental: First, a gene encoding each GLuc variant was cloned into pcDNA 3.1(+), and the same amount of plasmid was introduced into COS-7 cells. The cells were collected 16 hours after the introduction, lysed in cell lysate, and then transferred to a microplate reader. PBS buffer in which coelenterazine is dissolved was set to a substrate injector of the plate reader. At the measurement, after the substrate was automatically injected into each well, changes in the luminescence intensities were measured every 0.05 seconds.
Note that the composition of the modified Matthew's buffer contains the following components: • 100 mM potassium phosphate, 500 mM sodium chloride, 1 mM ethylenediaminetetraacetic acid (EDTA), 0.15 mg/ml porcine gelatin, pH 5.0, 1% Nonyiphenol ethoxylates (Tergitol NP-9) and 1% Antifoam, 25 mM thiourea, and 0.1% DMSO.

[5] = Area of luminescence spectrum of GLuc variants (20-minute lysis, luminescence plate reader); format: biochemical; details: for bioluminescence intensity higher than GLuc (area ratio): plate reader; for bioluminescence intensity (area of spectrum), in words: versus original GLuc
Experimental: In this case, a protocol for immersing the lysate samples in lysis solution for 20 minutes was employed (uniformed cell lysates even whose organelles are lysed). The area of the luminescence spectrum measured by a luminescence plate reader was used as the index of the luminescence intensity.

[6] = Luminescence spectrum of GLuc variants in COS-7 cell lysates (5-minute lysis, spectrophotometer); format: biochemical; details: for luminescence intensity higher than GLuc (peak of luminescence spectrum): COS-7 lysate, coelenterazine; for luminance (peak of luminescence spectrum), in words: versus original GLuc
Experimental: Subsequently, cell lysates were prepared from the COS-7 cells in each well (5-minute lysis), and a spectrum was measured in the presence of a luciferase-specific substrate (coelenterazine), using a fluorescence spectrophotometer (F-7000, Hitachi), thereby examining the effect of the introduced mutation. FIGS. 4B-1 and 4C show the results.
Additionally, in the preparation of cell samples, the samples are immersed in a lysis solution for 5 minutes. This allows preparation of non-uniform samples of cells whose organelles are not lysed, by a quick process.

B1: MLuc4: Y122W/I123L/H128E/Y130W variant of MLuc (protein)
chain: MDIKVVFTLVFSALVQAKSTEFDPNIDIVGLEGKFGITNLETDLFTIWETMEVMIKADIADTDRASNFVATETDANRGKMPGKKLPLAVIMEMEANAFKAGCTRGCLICLSKIKCTAKMKVWLPGRCEDWGGDKKTGQAGIVGAIVDIPEISGFKEMAPMEQFIAQVDRCASCTTGCLKGLANVKCSELLKKWLPDRCASFADKIQKEVHNIKGMAGDR
modifications: MLuc mutant (Y122W/I123L/H128E/Y130W); MLuc4
notes: Y122W/I123L/H128E/Y130W variant of MLuc
Q: What does the source list for B1?
A: luminescence stability of MLuc variants [1]: most stable bioluminescence; luminescence stability of MLuc variants ([1]; listed as Mluc4): more stable bioluminescence

B2: I123L: MLuc with I123L mutation introduced; corresponds to I90 of GLuc (protein)
chain: B1 chain with W122Y, E128H, W130Y
modifications: MLuc mutant (I123L)
Q: With B2 as the molecule, how does the long-wavelength luminescence intensity ([1]; 610 nm long-pass filter) read?
A: strong bioluminescence in the red wavelength

Q: What about the “luminescence intensity compared to original MLuc” value ([1]; luminescence spectrum) of the same molecule?
A: increased

B3: SimGR3: control probe: original GLuc dissected into two fragments with GR LBD and LXXLL motif inserted (protein)
chain: MKPTENNEDFNIVAVASNFATTDLDADRGKLPGKKLPLEVLKEMEANARKAGCTRGCLICLSHIKCTPKMKKFIPGRCHTYEGDKESAQGGGGGTQLTPTLVSLLEVIEPEVLYAGYDSSVPDSTWRIMTTLNMLGGRQVIAAVKWAKAIPGFRNLHLDDQMTLLQYSWMFLMAFALGWRSYRQSSANLLCFAPDLIINEQRMTLPCMYDQCKHMLYVSSELHRLQVSYEEYLCMKTLLLLSSVPKDGLKSQELFDEIRMTYIKELGKAIVKREGNSSQNWQRFYQLTKLLDSMHEVVENLLNYCFQTFLDKTMSIEFPEMLAEIITNQIPKYSNGNIKKLLFHQKVDGGNGGRNALLRYLLDKDGSGGGGIGEAIVDIPEIPGFKDLEPMEQFIAQVDLCVDCTTGCLKGLANVQCSDLLKKWLPQRCATFASKIQGQVDKIKGAGGDKDEL
modifications: SimGR3; an integrated molecule-format probe carrying an LXXLL motif and GLuc.
notes: control probe: original GLuc dissected into two fragments with GR LBD and LXXLL motif inserted
Q: For B3, which “luminescence and stress hormone sensitivity with 610 nm long-pass filter” value [2] is on record?
A: not significant enough to distinguish between the presence and absence of stress hormone

B4: I114L: MpLuc1 with a mutation introduced into I114; corresponds to I90 of GLuc (protein)
chain: MMEIQVLFALICFALVQANPTENKDDIDIVGVEGKFGTTDLETDLFTIVEDMNVISRDTNLANSDADRGKMPGKKLPLEVLIEMEANARKAGCTRGCLICLSKIKCTAKMKVYLPGRCHDYGGDKKTGQAGIVGAIVDIPEISGFKELGPMEQFIAQVDLCADCTTGCLKGLANVKCSALLKKWLPDRCASFADKIQSEVDNIKGLAGDRKDEL
modifications: MpLuc1 mutant (I114L)
Q: Which results are given for B4?
A: luminescence intensity compared to original MpLuc1 ([3]; luminescence spectrum): higher luminescence intensity; luminescence stability compared with MpLuc1 [3]: more stable bioluminescences

B5: F89W/I90L: GLuc with isoleucine 90 replaced with leucine and phenylalanine 89 with tryptophan (protein)
chain: MGVKVLFALICIAVAEAKPTENNEDFNIVAVASNFATTDLDADRGKLPGKKLPLEVLKEMEANARKAGCTRGCLICLSHIKCTPKMKKWLPGRCHTYEGDKESAQGGIGEAIVDIPEIPGFKDLEPMEQFIAQVDLCVDCTTGCLKGLANVQCSDLLKKWLPQRCATFASKIQGQVDKIKGAGGDKDEL
modifications: GLuc mutant (F89W/I90L); named 8990
Q: For B5, which “bioluminescence at transplantation site versus GLuc” value (BALE/c nude mice) is on record?
A: stronger bioluminescence

Q: What about the “bioluminescence stability and strength” value [4] of the same molecule?
A: very stable and strong bioluminescence

Q: What about the “bioluminescence intensity higher than GLuc (area ratio)” value [5] of the same molecule?
A: 10.2 times

Q: And the “bioluminescence intensity (area of spectrum), in words” value (from here on “bioluminescence intensity … in words”) [5]?
A: particularly high bioluminescence intensity

B6: Y97W: GLuc variant in which tyrosine (Y) at position 97 was mutated to tryptophan (W) (protein)
chain: B5 chain with W89F, L90I, Y97W
modifications: GLuc mutant (Y97W)
Q: With B6 as the molecule, how does the “bioluminescence stability, short time” value [4] read?
A: stable luminescence intensities; also recorded: relatively stable bioluminescences

Q: What about the “bioluminescence intensity higher than GLuc (area ratio)” value [5] of the same molecule?
A: 2.1 times

Q: What about the “bioluminescence intensity … in words” value [5] of the same molecule?
A: particularly high bioluminescence intensity

B7: I90L/I115L: GLuc with isoleucine at positions 90 and 115 replaced with leucine (protein)
chain: B5 chain with W89F, I115L
modifications: GLuc mutant (I90L/I115L)
Q: For B7, which “bioluminescence stability and strength” value [4] is on record?
A: very stable and strong bioluminescence

Q: What about the “bioluminescence intensity higher than GLuc (area ratio)” value [5] of the same molecule?
A: 4.9 times

Q: What about the “bioluminescence intensity … in words” value [5] of the same molecule?
A: particularly high bioluminescence intensity

B8: F89W: GLuc variant, F at position 89 replaced with W (protein)
chain: B5 chain with L90I
modifications: GLuc mutant (F89W)
Q: For B8, which “bioluminescence stability, short time” value [4] is on record?
A: relatively unstable luminescence intensity

Q: What about the “bioluminescence stability, long time” value [4] of the same molecule?
A: relatively unstable

Q: What about the “decrease of bioluminescence intensity” value ([4]; within 10 minutes after introduction of substrate) of the same molecule?
A: about 60%

Q: What about the “luminescence intensity higher than GLuc (peak of luminescence spectrum)” value [6] of the same molecule?
A: 9 times

Q: What about the “luminance (peak of luminescence spectrum), in words” value (from here on “luminance”) [6] of the same molecule?
A: particularly high luminance

B9: I108V: GLuc variant, position 108 replaced with valine (protein)
chain: B5 chain with W89F, L90I, D100N, I108V
modifications: GLuc mutant (I108V)
Q: With B9 as the molecule, how does the “luminescence intensity higher than GLuc (peak of luminescence spectrum)” value [6] read?
A: 6.7 times

Q: And the “luminance” value [6]?
A: particularly high luminance

B10: I90V: GLuc variant, isoleucine at position 90 mutated to valine (protein)
chain: B5 chain with W89F, L90V, D100N
modifications: GLuc mutant (I90V)
Q: With B10 as the molecule, how does the “bioluminescence stability, long time” value [4] read?
A: relatively stable

Q: What about the “luminance” value [6] of the same molecule?
A: particularly high luminance

B11: I118V: GLuc variant, position 118 replaced with valine (protein)
chain: B5 chain with W89F, L90I, D100N, I118V
modifications: GLuc mutant (I118V)
Q: With B11 as the molecule, how does the “luminance” value [6] read?
A: particularly high luminance

B12: H95E: GLuc variant, histidine at position 95 replaced with glutamic acid (protein)
chain: B5 chain with W89F, L90I, H95E
modifications: GLuc mutant (H95E)
Q: Which “bioluminescence intensity higher than GLuc (area ratio)” value [5] does the source give for B12 here?
A: 3.0 times

Q: And the “bioluminescence intensity … in words” value [5]?
A: particularly high bioluminescence intensity

B13: MpLuc4: Y113W/I114L/H119E/Y121W variant of MpLuc1 (protein)
chain: MMEIQVLFALICFALVQANPTENKDDIDIVGVEGKFGTTDLETDLFTIVEDMNVISRDTNLANSDADRGKMPGKKLPLEVLIEMEANARKAGCTRGCLICLSKIKCTAKMKVWLPGRCEDWGGDKKTGQAGIVGAIVDIPEISGFKELGPMEQFIAQVDLCADCTTGCLKGLANVKCSALLKKWLPDRCASFADKIQSEVDNIKGLAGDR
modifications: MpLuc1 mutant (Y113W/I114L/H119E/Y121W); MpLuc4
notes: Y113W/I114L/H119E/Y121W variant of MpLuc1
Q: What does the source list for B13?
A: initial luminescence intensity sustained ([3]; 10 seconds after introduction of substrate): 60%; luminescence stability compared with MpLuc1 [3]: more stable bioluminescences
